The record followed here is patent US20240201167A1 (ALBERT EINSTEIN COLLEGE OF MEDICINE, published 2024).

Assay [1] addresses T1, Sortilin expressed on cells (UniProt Q99523 78-831, limits assumed).
T1 construct: whole, on cells
Put plainly: cell-cell binding.

Assay [2] addresses T2, SorCS1 expressed on cells (UniProt Q8WY21 34-1168, limits assumed).
T2 construct: whole, on cells
T2 sequence (looked up): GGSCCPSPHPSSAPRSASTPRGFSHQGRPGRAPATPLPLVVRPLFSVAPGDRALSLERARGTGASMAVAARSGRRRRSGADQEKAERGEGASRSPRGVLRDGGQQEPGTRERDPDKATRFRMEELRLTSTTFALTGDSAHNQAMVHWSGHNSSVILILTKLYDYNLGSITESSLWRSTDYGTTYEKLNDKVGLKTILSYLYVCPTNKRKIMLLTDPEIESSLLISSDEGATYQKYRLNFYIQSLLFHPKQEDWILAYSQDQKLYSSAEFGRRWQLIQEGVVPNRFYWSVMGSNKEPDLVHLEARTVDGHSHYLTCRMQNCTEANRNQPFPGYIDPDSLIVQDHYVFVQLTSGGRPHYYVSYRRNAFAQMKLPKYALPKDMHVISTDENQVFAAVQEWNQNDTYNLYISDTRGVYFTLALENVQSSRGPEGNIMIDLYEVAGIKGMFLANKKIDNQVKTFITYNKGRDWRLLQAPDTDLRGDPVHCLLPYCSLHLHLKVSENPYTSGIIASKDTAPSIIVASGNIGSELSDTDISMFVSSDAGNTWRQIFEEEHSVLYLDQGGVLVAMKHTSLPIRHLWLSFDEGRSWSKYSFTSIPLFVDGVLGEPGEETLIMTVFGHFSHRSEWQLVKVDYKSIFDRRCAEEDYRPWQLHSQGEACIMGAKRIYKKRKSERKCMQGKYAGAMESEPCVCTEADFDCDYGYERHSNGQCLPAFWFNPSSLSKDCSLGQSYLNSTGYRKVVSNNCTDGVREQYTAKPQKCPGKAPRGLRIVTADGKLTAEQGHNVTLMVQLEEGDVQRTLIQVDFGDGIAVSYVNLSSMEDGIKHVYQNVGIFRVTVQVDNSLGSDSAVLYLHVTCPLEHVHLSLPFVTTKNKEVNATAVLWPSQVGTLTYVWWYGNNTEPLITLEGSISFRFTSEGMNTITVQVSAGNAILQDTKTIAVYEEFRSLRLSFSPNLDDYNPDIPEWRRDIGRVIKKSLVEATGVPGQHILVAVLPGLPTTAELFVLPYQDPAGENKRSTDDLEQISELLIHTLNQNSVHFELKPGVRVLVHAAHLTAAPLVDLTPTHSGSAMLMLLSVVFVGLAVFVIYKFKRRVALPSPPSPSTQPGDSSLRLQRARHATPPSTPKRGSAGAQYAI
The experiment in a line: cell-cell binding.

Assay [3] deals with T3, SorCS2 expressed on cells (UniProt Q96PQ0 51-1159, limits assumed).
T3 construct: whole, on cells
The experiment in a line: cell-cell binding.

Assay [4] has as its target T4, SorCS3 expressed on cells (UniProt Q9UPU3 134-1222, limits assumed).
T4 construct: whole, on cells
T4 sequence (looked up): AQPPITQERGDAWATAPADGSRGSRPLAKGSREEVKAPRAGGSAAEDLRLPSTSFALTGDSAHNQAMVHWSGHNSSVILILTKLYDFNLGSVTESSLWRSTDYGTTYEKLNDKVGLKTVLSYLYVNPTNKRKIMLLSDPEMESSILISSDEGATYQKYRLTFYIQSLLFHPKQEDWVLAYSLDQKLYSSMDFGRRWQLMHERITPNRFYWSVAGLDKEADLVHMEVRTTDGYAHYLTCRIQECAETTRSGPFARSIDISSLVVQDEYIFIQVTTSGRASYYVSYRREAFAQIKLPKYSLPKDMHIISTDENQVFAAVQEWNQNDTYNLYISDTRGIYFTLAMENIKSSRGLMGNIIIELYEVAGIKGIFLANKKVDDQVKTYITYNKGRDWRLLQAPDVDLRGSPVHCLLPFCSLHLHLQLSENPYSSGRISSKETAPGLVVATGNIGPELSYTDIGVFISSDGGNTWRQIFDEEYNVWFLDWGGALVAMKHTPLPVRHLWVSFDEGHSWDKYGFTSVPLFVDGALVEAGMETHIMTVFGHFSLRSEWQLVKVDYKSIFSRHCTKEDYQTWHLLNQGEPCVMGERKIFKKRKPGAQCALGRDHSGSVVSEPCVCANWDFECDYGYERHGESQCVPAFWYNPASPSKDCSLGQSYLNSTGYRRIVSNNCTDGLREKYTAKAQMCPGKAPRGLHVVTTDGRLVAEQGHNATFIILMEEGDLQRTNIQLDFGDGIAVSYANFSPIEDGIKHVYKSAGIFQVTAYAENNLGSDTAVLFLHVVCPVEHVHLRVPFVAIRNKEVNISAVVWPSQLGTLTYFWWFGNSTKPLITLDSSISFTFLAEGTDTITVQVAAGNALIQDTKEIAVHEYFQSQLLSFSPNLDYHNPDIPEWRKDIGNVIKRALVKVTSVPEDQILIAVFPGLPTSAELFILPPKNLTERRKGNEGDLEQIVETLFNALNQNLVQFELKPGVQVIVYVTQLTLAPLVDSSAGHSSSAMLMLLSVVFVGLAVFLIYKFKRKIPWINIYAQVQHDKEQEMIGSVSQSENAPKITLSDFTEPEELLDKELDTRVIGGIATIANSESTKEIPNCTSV
The experiment in a line: cell-cell binding.

In a further assay the target is T5, TNFR2 expressed on cells (human, UniProt P20333 23-461).
T5 construct: whole, on cells
T5 sequence (looked up): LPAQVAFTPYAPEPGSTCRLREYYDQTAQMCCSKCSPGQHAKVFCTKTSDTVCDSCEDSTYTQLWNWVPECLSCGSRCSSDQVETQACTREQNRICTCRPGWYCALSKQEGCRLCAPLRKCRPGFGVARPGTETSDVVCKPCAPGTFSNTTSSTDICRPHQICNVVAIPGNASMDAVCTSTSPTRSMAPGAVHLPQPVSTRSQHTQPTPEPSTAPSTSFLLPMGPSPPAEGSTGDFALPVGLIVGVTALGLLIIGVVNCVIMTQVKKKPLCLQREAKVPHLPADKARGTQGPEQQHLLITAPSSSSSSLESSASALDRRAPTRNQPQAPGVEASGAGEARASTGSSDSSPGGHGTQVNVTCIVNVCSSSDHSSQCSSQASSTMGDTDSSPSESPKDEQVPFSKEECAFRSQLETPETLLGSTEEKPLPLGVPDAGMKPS
Put plainly: cell-cell screen, flow cytometry. The method, then: (§1) As illustrated, cells were transfected with expression cassettes expressing labeled receptors or labeled ligands, receptor-expressing cells were mixed with ligand-expressing cells and cell-to-cell binding was monitored by detecting the labels associated with the receptor and the ligand. […] Binding was detected using an anti-mIgG2A ab and flow cytometry. The binding curves were fit and the Bmax, EC50, and hill coefficient were calculated using the equation Y=Bmax*Xh/(Kdh+Xh).
Background: A flow cytometer gives signals particle by particle.

Another assay deals with T6, FAS expressed on cells (human, UniProt P25445 26-335).
T6 construct: whole, on cells
T6 sequence (looked up): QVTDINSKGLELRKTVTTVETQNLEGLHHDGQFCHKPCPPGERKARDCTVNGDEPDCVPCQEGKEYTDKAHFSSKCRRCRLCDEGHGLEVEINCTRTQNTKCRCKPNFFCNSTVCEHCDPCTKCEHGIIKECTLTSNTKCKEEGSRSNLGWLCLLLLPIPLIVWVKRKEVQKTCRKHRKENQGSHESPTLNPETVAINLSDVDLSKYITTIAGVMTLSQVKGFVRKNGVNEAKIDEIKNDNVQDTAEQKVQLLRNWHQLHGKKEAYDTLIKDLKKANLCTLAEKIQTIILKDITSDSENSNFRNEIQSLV
Put plainly: cell-cell screen, flow cytometry. The method, then: as §1

Assay [5] deals with T7, human p75 neurotrophin receptor, full length, expressed on HEK 293 cells (Homo sapiens, UniProt P08138 29-427).
T7 construct: Full-length human p75 with a cytosolic fluorescent tag (GFP); also called p75NTR; NGFR
T7 sequence: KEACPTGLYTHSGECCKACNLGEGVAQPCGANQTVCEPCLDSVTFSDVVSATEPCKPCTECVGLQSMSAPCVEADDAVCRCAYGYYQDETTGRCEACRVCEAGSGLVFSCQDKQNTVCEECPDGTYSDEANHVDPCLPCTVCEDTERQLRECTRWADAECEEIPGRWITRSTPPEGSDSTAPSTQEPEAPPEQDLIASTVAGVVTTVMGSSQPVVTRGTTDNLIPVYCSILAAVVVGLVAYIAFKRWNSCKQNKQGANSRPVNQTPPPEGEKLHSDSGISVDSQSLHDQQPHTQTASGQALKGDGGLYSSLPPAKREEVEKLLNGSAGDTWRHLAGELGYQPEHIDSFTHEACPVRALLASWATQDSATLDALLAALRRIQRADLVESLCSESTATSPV
The experiment in a line: Fc fusion titrated on transfected cells, flow cytometry. The method, then:
(§2) Three days post transfection cells were counted and diluted to 1×10⁶ cells/mL in 1×PBS 0.2% BSA, pH 7.4. Premixed solutions containing a final concentration of 1 μM Fc-fusion protein and 1.5 μM Alexa 647 goat anti-mouse secondary antibody (ThermoFisher, A-21235) were incubated on ice for 30 min. Subsequently, increasing amounts of the premixed solution was added to wells of a 96-well plate and the volume adjusted to 50 μL with 1×PBS and 100 μL of diluted cells (100,000 cells total) added to the wells. Binding was performed at room temperature for 1 hour, the cells washed 2× with 1×PBS 0.2% BSA by centrifugation and subsequently analyzed by Flow Cytometry on a SONY Spectral Analyzer (SA 3800). Gated live cells were sub-gated for GFP, and GFP-positive cells sub-gated for Alexa-647.

Assay [6] has as its target T8, human CD28 expressed on HEK 293 cells (human, UniProt P10747 19-220).
T8 construct: whole, on cells; also called CD28-GFP
Put plainly: Fc fusion titrated on CD28-expressing cells, flow cytometry. Here is the method:
as §2

Assay [7] has as its target T9, human CTLA-4 expressed on HEK 293 cells (human, UniProt P16410 36-223).
T9 construct: whole, on cells; also called CTLA-4-GFP
The experiment in a line: Fc fusion titrated on CTLA-4-expressing cells, flow cytometry. The method, then:
as §2

“And” between values parts separate entries of the source, which are not always exact repeats. Equal entries are not always repeated.

T9 sequence (P16410 36-223): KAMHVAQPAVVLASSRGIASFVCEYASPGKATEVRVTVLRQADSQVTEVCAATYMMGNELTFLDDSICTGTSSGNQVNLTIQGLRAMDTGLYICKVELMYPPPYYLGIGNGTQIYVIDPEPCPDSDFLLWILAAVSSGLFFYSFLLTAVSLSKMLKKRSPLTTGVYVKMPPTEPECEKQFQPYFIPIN
T3 sequence (Q96PQ0 51-1159 limits assumed): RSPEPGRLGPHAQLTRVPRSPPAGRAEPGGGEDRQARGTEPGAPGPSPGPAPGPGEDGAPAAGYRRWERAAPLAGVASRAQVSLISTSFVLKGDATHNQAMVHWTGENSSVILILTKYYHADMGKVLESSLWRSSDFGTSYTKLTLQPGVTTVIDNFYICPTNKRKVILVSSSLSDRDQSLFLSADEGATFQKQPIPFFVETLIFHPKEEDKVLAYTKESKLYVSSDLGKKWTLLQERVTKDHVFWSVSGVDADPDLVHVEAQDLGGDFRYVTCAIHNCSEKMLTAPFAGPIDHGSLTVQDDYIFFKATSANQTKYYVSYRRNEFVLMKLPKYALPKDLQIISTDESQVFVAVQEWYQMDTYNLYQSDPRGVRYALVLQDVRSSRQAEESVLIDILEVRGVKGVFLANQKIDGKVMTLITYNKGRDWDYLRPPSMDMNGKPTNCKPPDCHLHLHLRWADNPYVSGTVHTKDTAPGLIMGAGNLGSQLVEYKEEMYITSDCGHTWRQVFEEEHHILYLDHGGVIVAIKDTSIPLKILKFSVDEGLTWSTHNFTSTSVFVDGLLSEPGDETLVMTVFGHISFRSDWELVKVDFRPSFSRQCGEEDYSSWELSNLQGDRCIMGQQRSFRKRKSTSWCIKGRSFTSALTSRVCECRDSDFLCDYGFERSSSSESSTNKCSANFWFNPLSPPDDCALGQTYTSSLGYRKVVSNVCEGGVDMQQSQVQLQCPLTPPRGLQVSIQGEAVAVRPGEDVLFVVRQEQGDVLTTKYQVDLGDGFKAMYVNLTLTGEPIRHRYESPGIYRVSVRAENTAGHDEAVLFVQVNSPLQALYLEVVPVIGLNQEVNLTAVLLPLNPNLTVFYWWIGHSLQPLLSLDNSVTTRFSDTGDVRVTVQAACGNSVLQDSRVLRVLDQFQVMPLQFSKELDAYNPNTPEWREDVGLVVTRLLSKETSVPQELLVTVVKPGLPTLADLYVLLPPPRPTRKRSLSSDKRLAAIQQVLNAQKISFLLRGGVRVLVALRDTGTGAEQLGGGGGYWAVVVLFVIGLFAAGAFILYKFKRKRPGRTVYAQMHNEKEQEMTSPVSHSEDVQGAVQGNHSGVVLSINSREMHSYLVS

B1: human B7-1 (CD80), full length, expressed on HEK 293 cells (ligand)
chain: VIHVTYEVKEVATLSCGHNVSVEELAQTRIYWQKEKKMVLTMMSGDMNIWPEYKNRTIFDITNNLSIVILALRPSDEGTYECVVLKYEKDAFKREHLAEVTLSVKADFPTPSISDFEIPTSNIRRIICSTSGGFPEPHLSWLENGEELNAINTTVSQDPETELYAVSSKLDFNMTTNHSFMCLIKYGHLRVNQTFNWNTTKQEHFPDNLLPSWAITLISVNGIFVICCLTYCFAPRCRERRRNERL
notes: also called hB7-1; B7-1-mCherry
Consider B1, for which the binding result (in assay [1]; in assay [2]; in [3]; in [4]; with TNFR2 expressed on cells; with FAS expressed on cells) was “no binding” in each case.

B2: B7-1N82E-Fc (Fc fusion)
chain: VIHVTYEVKEVATLSCGHNVSVEELAQTRIYWQKEKKMVLTMMSGDMEIWPEYKNRTIFDITNNLSIVILALRPSDEGTYECVVLKYEKDAFKREHLAEVTLSVKADFPTPSISDFEIPTSNIRRIICSTSGGFPEPHLSWLENGEELNAINTTVSQDPETELYAVSSKLDFNMTTNHSFMCLIKYGHLRVNQTFNWNT
notes: also called recombinant mutant B7-1 N82E; B7-1 N82E Fc fusion protein; not shown: C-terminal deca-His-tagged Fc domain (mIgG2a-His10 or hIgG1-His10)
Turning to B2, the binding result in [5] is listed as “no binding”. The EC50 in assay [6] was ~9 nM and ~10 nM; in assay [7], ~9 nM and ~10 nM.

As usually defined, the EC50 is the concentration at which the effect is half-maximal. A low value points to higher potency in that assay.
